Results from PMC11857070.

Molecular target: Lectin-like protein 1 (Llp1), residues 23-241, without the signal peptide (Ustilago maydis)
Assay: SEC-MALS; Superdex 200 Increase 10/300, HEPES buffer, pH 7.5

Lectin-like protein 1 (Llp1), residues 23-241, without the signal peptide (from UniProt A0A0D1E6R1 23-241) (domain or fragment)
stoichiometry N: 4
